Patent publication US5928941

System: RKLF full length (Homo sapiens)
Assay: cell_activity
Details: BAEC cotransfection, CAT repression

Substance: CAC-tkCAT reporter (single beta-globin CACCC site)
- activity (% decrease in promoter activity): 90
